The values below come from the Human Domainome abundance scans (Beltran et al. 2025).

± gives the uncertainty stated by the source.

Sequences and labels used below:
B1: Proto-oncogene vav, residues 782 to 842; numbered along this chain, P15498 (parent)
chain: KYFGTAKARYDFCARDRSELSLKEGDIIKILNKKGQQGWWRGEIYGRVGWFPANYVEEDYS

In the data set the parent is B1. Nature of the data set: abundance fitness (aPCA) (normalised: wild type 0, dead -1); higher = more abundant; growth selection in yeast, the domain comes from the species named. As to conditions: Homo sapiens.
As to KYFGAAKARYDFCARDRSELSLKEGDIIKILNKKGQQGWWRGEIYGRVGWFPANYVEEDYS, the abundance fitness is -0.084 ± 0.067. As for KYFGTAKARYDFCARDRSELSLKEGDIIKILNKKGQQGWWRGEIYGRVGWPPANYVEEDYS, the abundance fitness was -0.733 ± 0.19. For KYFGTAKARYDFCARDRSELSLKEGDIIKILNKKGQQGWWRGEIYGRVGWAPANYVEEDYS, the abundance fitness was -0.984 ± 0.27. Next, KYFGTAKARYDFCARDRSELSLKEGDIIKILNKKGQQCWWRGEIYGRVGWFPANYVEEDYS: -0.725 ± 0.23. Turning to KYFGTAKARYDFCARDRSELSLKEGDIIKILNKKGQQHWWRGEIYGRVGWFPANYVEEDYS, the abundance fitness is -0.418 ± 0.18. Consider KYFGTAKARYDFCARDRSELSLKEGDIIKILNKKGQQEWWRGEIYGRVGWFPANYVEEDYS, for which the abundance fitness is -0.438 ± 0.17. With KYFGTAKARYDFCARDRSELSLKEGDIIKILNKKGQQRWWRGEIYGRVGWFPANYVEEDYS, the abundance fitness was -0.539 ± 0.11. KYFGTAKARYGFCARDRSELSLKEGDIIKILNKKGQQGWWRGEIYGRVGWFPANYVEEDYS: the abundance fitness was -0.258 ± 0.07.

As for KYFGTAKARYDFCARDRSELSLKERDIIKILNKKGQQGWWRGEIYGRVGWFPANYVEEDYS, the abundance fitness was -0.667 ± 0.091. Regarding KYFGTAKARYDFCARDRSELSLKEGDIIKILNKKGQQGWWRGEIYGRVDWFPANYVEEDYS, the abundance fitness is -0.956 ± 0.33.

Turning to KYFGTAKARYDFCARDRSELSLKEGDIIKILNKKGQQGWWRGVIYGRVGWFPANYVEEDYS, the abundance fitness is -0.411 ± 0.073.

For KYFGTAKARYDFCARDRSELSLKEGDIIKILNKKGQQGWWRGEIYGRVGWFPANYVEETYS, the abundance fitness is 0.008 ± 0.082. Consider KYFGTAKARYDFCARDRSELSLKEGDIIKILNKKGQQGWWRGEIYGRVGWFPANYVEEMYS, for which the abundance fitness is -0.027 ± 0.12. For the variant KYFGTAKARYDFCARDRSELSLKEGDIIKILNKKGQQGWWRGEIYGRVGWFPANYVEENYS, the abundance fitness amounted to 0.052 ± 0.1. On to KYFGTAKARYDFCARDRSELSLKEGDIIKILNKKGQQGWWRGEIYGRVGWFPANYVEECYS, for which the abundance fitness is -0.125 ± 0.11. On to KYFGTAKARYDFCARDRSELSLKEGDIIKILNKKGQQGWWRGEIYGRVGWFPANGVEEDYS, for which the abundance fitness is -0.396 ± 0.11. Regarding KYFGTAKARYDACARDRSELSLKEGDIIKILNKKGQQGWWRGEIYGRVGWFPANYVEEDYS, the abundance fitness was -0.537 ± 0.12. As for KYFGTAKARYDVCARDRSELSLKEGDIIKILNKKGQQGWWRGEIYGRVGWFPANYVEEDYS, the abundance fitness is -0.763 ± 0.13.

Take KYFGTANARYDFCARDRSELSLKEGDIIKILNKKGQQGWWRGEIYGRVGWFPANYVEEDYS: the abundance fitness is -0.797 ± 0.42. For the variant KYFGTADARYDFCARDRSELSLKEGDIIKILNKKGQQGWWRGEIYGRVGWFPANYVEEDYS, the abundance fitness was -0.766 ± 0.39.

KYFGTAKARYDFCARDRSELSLKEGDIIKILNKKGQQGWWRGEIYGRVGEFPANYVEEDYS: the abundance fitness was -0.603 ± 0.17.

KYFGTAKARYDFCARDRSELSLKEGDIIKILNKKGQQGWWRGEIYGRVGRFPANYVEEDYS: the abundance fitness was -0.596 ± 0.092.

Turning to KYFGTAKARDDFCARDRSELSLKEGDIIKILNKKGQQGWWRGEIYGRVGWFPANYVEEDYS, the abundance fitness is -0.305 ± 0.11. For the variant KYFGTAKARYDFCARDRSELSLKVGDIIKILNKKGQQGWWRGEIYGRVGWFPANYVEEDYS, the abundance fitness was found to be 0.045 ± 0.049. Next, KYFGTAKARYDFCARDRSELSLKQGDIIKILNKKGQQGWWRGEIYGRVGWFPANYVEEDYS: -0.072 ± 0.13. For KYFGTAKARYDFCARDRSELSLKEGDIIKILNKKGQQGWWRGEIYGRVGWFPINYVEEDYS, the abundance fitness is -0.314 ± 0.15.

In the case of KYFGTAKARYDFCARDRSELSLKEGDIIKILNKKGQQGWWRGEIYGRVGWFPNNYVEEDYS, the abundance fitness is -0.444 ± 0.14.

For the variant KYFGTAKARYDFCARDRSELSLKEGHIIKILNKKGQQGWWRGEIYGRVGWFPANYVEEDYS, the abundance fitness was -0.941 ± 0.31.

Regarding KYFGTAKARYDFCARDRSELSLKEGVIIKILNKKGQQGWWRGEIYGRVGWFPANYVEEDYS, the abundance fitness is -0.559 ± 0.072. Consider KYFGTCKARYDFCARDRSELSLKEGDIIKILNKKGQQGWWRGEIYGRVGWFPANYVEEDYS, for which the abundance fitness was -0.115 ± 0.068. Next, KYFGTAKARYDFCARDRSELSLKEGDIIKILNKKGQPGWWRGEIYGRVGWFPANYVEEDYS: 0.039 ± 0.088; KYFGTAKARYDFCARDRSELSLKEGDIIKILNKKGQNGWWRGEIYGRVGWFPANYVEEDYS: -0.086 ± 0.22; DYFGTAKARYDFCARDRSELSLKEGDIIKILNKKGQQGWWRGEIYGRVGWFPANYVEEDYS: -0.437 ± 0.27. With RYFGTAKARYDFCARDRSELSLKEGDIIKILNKKGQQGWWRGEIYGRVGWFPANYVEEDYS, the abundance fitness was -0.643 ± 0.2.

In the case of KYFGTAKARYDFCARDRSELSLKEGDIIKMLNKKGQQGWWRGEIYGRVGWFPANYVEEDYS, the abundance fitness is -0.555 ± 0.15.

KYFGTAKARYDFCARDRSELSLKEGDIIKGLNKKGQQGWWRGEIYGRVGWFPANYVEEDYS: the abundance fitness is -0.675 ± 0.11. Consider KYFGTAKARYDFCARDRSELSLKEGDIIKILNKKGQQGWWRGEIYTRVGWFPANYVEEDYS, for which the abundance fitness is -0.542 ± 0.069. Regarding KYFGTAKARYDFCARDRSELSLKEGDIIKILNKKGQQGWWRGEIYARVGWFPANYVEEDYS, the abundance fitness is -0.731 ± 0.09. For KYFGTAKARYDFCARDRSELSLKEGDIIKILNKKGQQGWWRGEIYHRVGWFPANYVEEDYS, the abundance fitness is -0.672 ± 0.16. As to KYFGTAKAWYDFCARDRSELSLKEGDIIKILNKKGQQGWWRGEIYGRVGWFPANYVEEDYS, the abundance fitness was -0.737 ± 0.2. Then KYFGTAKAEYDFCARDRSELSLKEGDIIKILNKKGQQGWWRGEIYGRVGWFPANYVEEDYS, with -0.614 ± 0.25. As for KYFGTAKAYYDFCARDRSELSLKEGDIIKILNKKGQQGWWRGEIYGRVGWFPANYVEEDYS, the abundance fitness was -0.821 ± 0.27. Next, KYFGTAKARYDFCARDRSELSLKEGDIIKILNKKGQQGWWFGEIYGRVGWFPANYVEEDYS: 0.081 ± 0.091; KYFGTAKFRYDFCARDRSELSLKEGDIIKILNKKGQQGWWRGEIYGRVGWFPANYVEEDYS: -0.785 ± 0.26.
